Results reported in paper doi:10.1101/2022.03.24.485560.

Target: TRIM7 PRY-SPRY domain (338-511 aa) (human) (UniProt Q9C029)
Assay: ITC

Substance	Kd [µM]
CVB3 2C (117-329 aa) (domain or fragment)	6
C-terminal peptide fragment of glycogenin-1 (GN1)	8
CVB3 2C-derived peptide (319-329 aa)	3
C-terminal peptide fragment of RACO-1	10
